The values below are quoted from earlier work in PMC8308721, “An Effective and Safe Enkephalin Analog for Antinociception” (Pharmaceutics, 2021).

Usually Kd stands for the concentration at which binding is half-saturated.

The data set concerns the target [3H]DADLE ([D-Ala2, D-Leu5]-enkephalin). As to the kind of experiment: radioligand.

As for “Delta opioid receptor (from UniProt P41143)”, the Kd was 0.6 nM.
